The series concerns the molecule itself. As to the kind of experiment: cryo-EM structure; apo PNPase and PNPase with 3'ETSleuZ RNA; 8-12 uM in 20 mM Tris-HCl pH 8, 2.5 mM MgCl2, 150 mM KCl, 1 mM TCEP, 8 mM CHAPSO added before blotting.

The values that follow come from publication PMC8294330, “A cooperative PNPase-Hfq-RNA carrier complex facilitates bacterial riboregulation” (Molecular Cell, 2021).

B1: Escherichia coli polynucleotide phosphorylase (PNPase), wild type (enzyme, UniProt P05055 1-711, looked up)
chain: MLNPIVRKFQYGQHTVTLETGMMARQATAAVMVSMDDTAVFVTVVGQKKAKPGQDFFPLTVNYQERTYAAGRIPGSFFRREGRPSEGETLIARLIDRPIRPLFPEGFVNEVQVIATVVSVNPQVNPDIVAMIGASAALSLSGIPFNGPIGAARVGYINDQYVLNPTQDELKESKLDLVVAGTEAAVLMVESEAQLLSEDQMLGAVVFGHEQQQVVIQNINELVKEAGKPRWDWQPEPVNEALNARVAALAEARLSDAYRITDKQERYAQVDVIKSETIATLLAEDETLDENELGEILHAIEKNVVRSRVLAGEPRIDGREKDMIRGLDVRTGVLPRTHGSALFTRGETQALVTATLGTARDAQVLDELMGERTDTFLFHYNFPPYSVGETGMVGSPKRREIGHGRLAKRGVLAVMPDMDKFPYTVRVVSEITESNGSSSMASVCGASLALMDAGVPIKAAVAGIAMGLVKEGDNYVVLSDILGDEDHLGDMDFKVAGSRDGISALQMDIKIEGITKEIMQVALNQAKGARLHILGVMEQAINAPRGDISEFAPRIHTIKINPDKIKDVIGKGGSVIRALTEETGTTIEIEDDGTVKIAATDGEKAKHAIRRIEEITAEIEVGRVYTGKVTRIVDFGAFVAIGGGKEGLVHISQIADKRVEKVTDYLQMGQEVPVKVLEVDRQGRIRLSIKEATEQSQPAAAPEAPAAEQGE
notes: polynucleotide phosphorylase (PNPase), Escherichia coli, full-length enzyme with RNase PH core, KH and S1 domains; Preparation follows Bandyra et al., 2016; no tag is named for the purified protein; also called wild-type PNPase; PNPase WT
The stoichiometry N is the number of molecules, sites or subunits per partner or assembly. Turning to B1, the “stoichiometry N” value came out at 3.
